The values that follow come from article PMC4141206 (FEBS Open Bio, 2014).

The experiment addresses ANAPC2CW fragment (mouse ANAPC2 cullin-Winged-helix subdomain; residues 512–837) (mouse, UniProt Q8BZQ7 512-837). Briefly: NMR titration.

ANAPC2CW fragment (mouse ANAPC2 cullin-Winged-helix subdomain; residues 512–837), sequence (Q8BZQ7 512-837): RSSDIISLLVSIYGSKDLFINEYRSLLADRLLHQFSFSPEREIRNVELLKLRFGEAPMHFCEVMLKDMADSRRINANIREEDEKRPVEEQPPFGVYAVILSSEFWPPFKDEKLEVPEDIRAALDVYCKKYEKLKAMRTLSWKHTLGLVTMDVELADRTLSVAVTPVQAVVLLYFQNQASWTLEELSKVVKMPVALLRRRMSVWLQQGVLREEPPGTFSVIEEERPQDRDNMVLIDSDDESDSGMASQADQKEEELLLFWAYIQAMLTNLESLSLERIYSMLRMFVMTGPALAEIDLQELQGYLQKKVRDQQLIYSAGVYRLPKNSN

B1: Emi2 ZBR–RL fragment (mouse Emi2; residues 547–641), 13C- and 15N-labeled (domain or fragment, UniProt Q8CDI2 546-640, looked up)
chain: LTHLRSKQEQYVKVARTLFTDEALKPCPRCQSPAKYQPHKKRGLCSRLACGFDFCVLCLCAYHGSEDCRRGSAKARGSKDVLPGSAQSKRNLKRL
modifications: [15N, 13C]-labeled
Take B1: the binding result is listed as “binds”.
